Reference: patent US20060099650A1 (UNIVERSITY OF MASSACHUSETTS, published 2006)

Molecular target: T1, TLR4:Fc fusion protein (UniProt O00206 24-631)
T1 construct: The composition is not described beyond 'the related TLR4:Fc'; also called the TLR4 fusion protein; not shown: Fc part; not described for TLR4:Fc (only 'related' to TLR2:Fc, which carries mouse IgG2a Fc)
Assay: ELISA, Fc fusion plated on plastic, biotinylated ligand as probe, anti-biotin-HRP detection

T1 sequence (O00206 24-631 limits assumed): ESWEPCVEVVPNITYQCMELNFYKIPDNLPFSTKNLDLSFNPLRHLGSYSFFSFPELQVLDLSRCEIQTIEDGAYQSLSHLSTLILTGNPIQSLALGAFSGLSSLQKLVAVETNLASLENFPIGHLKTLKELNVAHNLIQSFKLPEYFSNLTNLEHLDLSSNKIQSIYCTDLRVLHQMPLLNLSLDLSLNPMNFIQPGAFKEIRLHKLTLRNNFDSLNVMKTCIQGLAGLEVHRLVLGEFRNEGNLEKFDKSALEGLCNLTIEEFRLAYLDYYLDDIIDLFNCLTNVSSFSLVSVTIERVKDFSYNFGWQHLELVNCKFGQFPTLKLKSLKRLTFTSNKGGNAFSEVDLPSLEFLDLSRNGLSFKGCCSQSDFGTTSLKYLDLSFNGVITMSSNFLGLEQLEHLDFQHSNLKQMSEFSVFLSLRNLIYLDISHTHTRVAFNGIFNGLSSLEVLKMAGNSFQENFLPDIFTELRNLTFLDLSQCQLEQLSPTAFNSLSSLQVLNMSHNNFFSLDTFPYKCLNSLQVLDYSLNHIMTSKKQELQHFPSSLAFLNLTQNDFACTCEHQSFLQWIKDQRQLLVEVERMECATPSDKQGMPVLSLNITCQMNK

B1: PorinB from Neisseria meningitidis (ligand)
chain: DVTLYGTIKAGVETSRSVFHQNGQVTEVTTATGIVDLGSKIGFKGQEDLGNGLKAIWQVEQKASIAGTDSGWGNRQSFIGLKGGFGKLRVGRLNSVLKDTGDINPWDSKSDYLGVNKIAEPEARLISVRYDSPEFAGLSGSVQYALNDNAGRHNSESYHAGFNYKNGGFFVQYGGAYKRHHQVQEGLNIEKYQIHRLVSGYDNDALYASVAVQQQDAKLTDASNSHNSQTEVAATLAYRFGNVTPRVSYAHGFKGLVDDADIGNEYDQVVVGAEYDFSKRTSALVSAGWLQEGKGENKFVATAGGVGLRHKF
modifications: biotinylated in the binding assays (sites not given); not stated as biotinylated in the reporter assay
notes: also called biotinylated PorinB; biotinylated Porin
Q: Does B1 bind?
A: Result: no binding
